Results on two molecules are retold here after patent US20020025923A1 (University of California, published 2002).

B1: CD34, component of PNAd from human tonsil (ligand, UniProt P28906 32-385, looked up)
chain: SLDNNGTATPELPTQGTFSNVSTNVSYQETTTPSTLGSTSLHPVSQHGNEATTNITETTVKFTSTSVITSVYGNTNSSVQSQTSVISTVFTTPANVSTPETTLKPSLSPGNVSDLSTTSTSLATSPTKPYTSSSPILSDIKAEIKCSGIREVKLTQGICLEQNKTSSCAEFKKDRGEGLARVLCGEEQADADAGAQVCSLLLAQSEVRPQCLLLVLANRTEISSKLQLMKKHQSDLKKLGILDFTEQDVASHQSYSQKTLIALVTSGALLAVLGITGYFLMNRRSWSPTGERLGEDPYYTENGGGQGYSSGPGTSPEAQGKASVNRGAQENGTGQATSRNGHSARQHVVADTEL
modifications: native glycoprotein carrying the MECA-79 epitope

For test [1], the target named is T1, CD4/IgG chimera (entire extracellular domain of human CD4 fused to the Fc domain of human IgG1) (human, UniProt P01730 26-396).
T1 construct: extracellular domain; Control chimera; also called control CD4/IgG chimera; not shown: Fc domain of human IgG1
As to the kind of experiment: precipitation of PNAd with the IgG chimera (CD34 as a named component of PNAd).

Test [2] concerns the target B1. As to the kind of experiment: precipitation of PNAd with the L-selectin/IgG chimera, elution with EDTA.

Turning to B1, the binding result in test [1] is recorded as “no binding”.

B2: L-selectin/IgG chimera (entire extracellular domain of murine L-selectin fused to the Fc domain of human IgG1) (Fc fusion, UniProt P18337 39-332, looked up)
chain: WTYHYSEKPMNWENARKFCKQNYTDLVAIQNKREIEYLENTLPKSPYYYWIGIRKIGKMWTWVGTNKTLTKEAENWGAGEPNNKKSKEDCVEIYIKRERDSGKWNDDACHKRKAALCYTASCQPGSCNGRGECVETINNHTCICDAGYYGPQCQYVVQCEPLEAPELGTMDCIHPLGNFSFQSKCAFNCSEGRELLGTAETQCGASGNWSSPEPICQVVQCEPLEAPELGTMDCIHPLGNFSFQSKCAFNCSEGRELLGTAETQCGASGNWSSPEPICQETNRSFSKIKEGDYN
notes: extracellular domain; From supernatants of transfected 293 cells, protein-A purified; also called recombinant L-selectin/IgG chimera; not shown: Fc domain of human IgG1
As to B2, in test [2], the binding result is “binds”.
